This assay deals with HIV-1 strain IIIB envelope protein gp120/41 on the surface of HIV-1-infected Jurkat cells (HIV-1 strain IIIB) (UniProt P04578). Nature of the assay: cell-based or functional assay.

For “CXCR4 protein with an HA epitope tag (from UniProt P61073 1-352) (receptor)”, the percentage of HIV-1+ cells that were also infected with VSVΔG-CC4 lay in the range of 90 to 95%.
